# Assay results reported in article PMC7125119, “An oncopeptide regulates m6A recognition by the m6A reader IGF2BP1 and tumorigenesis”.
# Target: IGF2BP1-Flag (recombinant);RBRP-Flag WT (Homo sapiens?;Homo sapiens, UniProt Q9NZI8;C0HM01 1-577;1-71, |)
# Test: EMSA; RBRP WT increases IGF2BP1 binding; Pull-down: 1 nmol biotin-RNA on streptavidin-agarose, nuclear extract, 30 C 30 min, immunoblot. EMSA: LightShift kit, 20 pmol RNA, 6 ug IGF2BP1-Flag, 2 ug RBRP, room temperature 30 min, then 0.2% glutaraldehyde (1 ul) on ice 15 min, 6% TBE gel; salt and binding pH not stated
# Details: protein: recombinant;recombinant; label: biotin 5'; single strand
# IGF2BP1-Flag (recombinant);RBRP-Flag WT, sequence (Q9NZI8 whole entry, chain 1 of 2): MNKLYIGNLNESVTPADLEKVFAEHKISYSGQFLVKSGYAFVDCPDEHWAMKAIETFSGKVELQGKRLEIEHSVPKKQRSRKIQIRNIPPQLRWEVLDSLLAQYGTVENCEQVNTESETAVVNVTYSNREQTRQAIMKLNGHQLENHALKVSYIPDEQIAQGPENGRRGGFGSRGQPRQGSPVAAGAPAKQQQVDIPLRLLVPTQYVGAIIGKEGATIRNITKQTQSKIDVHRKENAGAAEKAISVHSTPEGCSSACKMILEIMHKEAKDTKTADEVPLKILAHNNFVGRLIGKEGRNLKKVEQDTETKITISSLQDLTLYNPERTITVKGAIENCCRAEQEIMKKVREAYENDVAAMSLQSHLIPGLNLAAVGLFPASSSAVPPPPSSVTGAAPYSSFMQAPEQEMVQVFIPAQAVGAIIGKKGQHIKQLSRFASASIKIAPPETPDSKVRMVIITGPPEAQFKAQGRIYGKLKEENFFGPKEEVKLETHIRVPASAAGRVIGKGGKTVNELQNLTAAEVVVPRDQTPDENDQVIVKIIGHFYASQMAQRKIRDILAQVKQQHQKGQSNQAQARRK
# IGF2BP1-Flag (recombinant);RBRP-Flag WT, sequence (C0HM01 whole entry, chain 2 of 2): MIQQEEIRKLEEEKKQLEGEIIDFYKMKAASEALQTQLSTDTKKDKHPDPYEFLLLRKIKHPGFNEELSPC
binder,measurement,value
"CGUCUCGGACUCGGACUGCU (ssRNA, m6A at 9 and 15) [ss-m6A]",binding result,binds
